A word on the Km: it is the concentration of substrate that gives half-maximal velocity.

Substrate in series [1]: N[C@@H](CO)C(=O)O
The series can be described thus: purified protein.

Substrate in series [2]: Nc1ncnc2c1ncn2[C@@H]1O[C@H](COP(=O)(O)OP(=O)(O)OP(=O)(O)O)[C@@H](O)[C@H]1O
The series can be described thus: purified protein.

B1: SARS2 (human mitochondrial seryl-tRNA synthetase, mature form) (Homo sapiens) (protein)
chain: TTEKRNRNLLYEYAREGYSALPQLDIERFCACPEEAAHALELRKGELRSADLPAIISTWQELRQLQEQIRSLEEEKAAVTEAVRALLANQDSGEVQQDPKYQGLRARGREIRKELVHLYPREAQLEEQFYLQALKLPNQTHPDVPVGDESQARVLHMVGDKPVFSFQPRGHLEIGEKLDIIRQKRLSHVSGHRSYYLRGAGALLQHGLVNFTFNKLLRRGFTPMTVPDLLRGAVFEGCGMTPNANPSQIYNIDPARFKDLNLAGTAEVGLAGYFMDHTVAFRDLPVRMVCSSTCYRAETNTGQEPRGLYRVHHFTKVEMFGVTGPGLEQSSQLLEEFLSLQMEILTELGLHFRVLDMPTQELGLPAYRKFDIEAWMPGRGRFGEVTSASNCTDFQSRRLHIMFQTEAGELQFAHTVNATACAVPRLLIALLESNQQKDGSVLVPPALQSYLGTDRITAPTHVPLQYIGPNQPRKPGLPGQPAVS
As to B1, the Km was 2400 ± 40 µM in “purified protein [1]” and 112.83 ± 10.54 µM in the series “purified protein [2]”.

These data come from PMC9723649.
